Reference: the supplement of paper PMC10724198
± gives the standard deviation of the averaged measurements.

test system: Saccharomyces cerevisiae; assay: protein stability index of tFT-peptide fusion (C-terminal peptide) (PSI (0-1 scale)); higher = more stable (slower turnover); details: genetic background: wild type; temperature: 30 C
Procedure: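 Multiplexed protein stability (MPS) profiling in S. cerevisiae. Random 12-aa peptides (tFT-X12 library) are fused to the C-terminus of a sfGFP-mCherry tandem fluorescent timer, after mCherry and a GGGS linker. Cells are FACS-sorted into 8 mCherry/sfGFP bins and deep-sequenced. The protein stability index (PSI) is the read-weighted bin average, scaled from 0 (unstable) to 1 (stable). Only peptides with >10 reads are reported; cells were grown at 30 °C in SC-His with glucose.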
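Further: PSI is a weighted mean of sequencing reads over stability bins, variants kept only with over 10 reads, mCherry proximal and sfGFP distal, peptide attached via GGGS linker.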

First: KRLTSKVKTITG
Second: KRNKDYGSFEVT
The protein stability index of the first is higher: 0.694 ± 0.031 for the first, 0.629 ± 0.029 for the second.

First: KRRKKKKQSGGK
Second: KRSIEIRTKIKL
The protein stability index of the first is lower: 0.645 ± 0.023 for the first, 0.7 ± 0.022 for the second.

KRTRRADVGKED and KRVGLRLCGRLT are within error of each other in protein stability index: 0.65 ± 0.064 for the first, 0.704 ± 0.04 for the second.

Compared with KRVSGSEQDIAT, KRYKSYEDKNVM is higher in protein stability index: 0.6561 ± 0.0026 for the first, 0.696 ± 0.033 for the second.

Compared with KSEIRDGRFPSC, KSEMAIIEKKEN is higher in protein stability index: 0.589 ± 0.011 for the first, 0.667 ± 0.055 for the second.

KSGVWLWVGGGG and KSKDKGEGKELK are within error of each other in protein stability index: 0.714 ± 0.033 for the first, 0.694 ± 0.088 for the second.

KSKTRTKLYSRN and KSLSEKSKEKGS are within error of each other in protein stability index: 0.6421 ± 0.0017 for the first, 0.668 ± 0.034 for the second.

KSLYLVDDRVGR and KSNTGGGERNKA are within error of each other in protein stability index: 0.764 ± 0.078 for the first, 0.668 ± 0.018 for the second.

Compared with KSPYNTPLSLVL, KSRVCSPSNEPS is higher in protein stability index: 0.672 ± 0.024 for the first, 0.7443 ± 0.0074 for the second.

KSYTGSRGQRVL and KTFRTYRTYFRK are within error of each other in protein stability index: 0.701 ± 0.053 for the first, 0.682 ± 0.023 for the second.

KTKEKTKKEIQM and KTKKKKKKKINK are within error of each other in protein stability index: 0.629 ± 0.0042 for the first, 0.711 ± 0.11 for the second.

KTKNTQRKTEEN and KTKTKKKERNRK are within error of each other in protein stability index: 0.653 ± 0.047 for the first, 0.622 ± 0.088 for the second.

KTLYIAKTKSRA and KTNLGNTKVKKK are within error of each other in protein stability index: 0.644 ± 0.038 for the first, 0.613 ± 0.025 for the second.

KTPAAVPWTRER and KTPHSTARNFNR are within error of each other in protein stability index: 0.693 ± 0.013 for the first, 0.736 ± 0.092 for the second.

Going from KTRNDQPQKFHN to KVCIRFSCKIHM, the protein stability index falls from 0.688 ± 0.034 to 0.6396 ± 0.0021.

Going from KVIRVEALEILV to KVKIKREKKKRK, the protein stability index rises from 0.544 ± 0.023 to 0.672 ± 0.017.

KVQGGGKYPTYS and KVSATIISFENI are within error of each other in protein stability index: 0.699 ± 0.058 for the first, 0.709 ± 0.1 for the second.

Compared with KVVGRLGVERVR, KWREQPRNDIVL is lower in protein stability index: 0.753 ± 0.0052 for the first, 0.604 ± 0.047 for the second.

Compared with KYDSPFFNWCSQ, KYKEEINEKIFN is higher in protein stability index: 0.579 ± 0.031 for the first, 0.646 ± 0.022 for the second.

KYKELEAAALQK and KYRHDFNEVSKT are within error of each other in protein stability index: 0.732 ± 0.11 for the first, 0.665 ± 0.036 for the second.

LAEGFSLIRSHR and LAFFEFVVDSLG are within error of each other in protein stability index: 0.685 ± 0.019 for the first, 0.677 ± 0.018 for the second.

Going from LAGGMTSRTVSI to LAGVTLPRPSSA, the protein stability index falls from 0.716 ± 0.0073 to 0.6633 ± 0.0046.

First: LAIIKLRGDLSY
Second: LAKRSKCCNRSR
The protein stability index of the first is lower: 0.6646 ± 0.0019 for the first, 0.686 ± 0.018 for the second.

Compared with LALGICRLSSAG, LALSRVALFSHS is lower in protein stability index: 0.7599 ± 0.005 for the first, 0.679 ± 0.042 for the second.

LAPPPARLPLSP and LARFRAEWGGVV are within error of each other in protein stability index: 0.687 ± 0.009 for the first, 0.691 ± 0.019 for the second.

First: LARWFILRDLIY
Second: LASARPLILSWP
The protein stability index of the first is lower: 0.56 ± 0.0089 for the first, 0.628 ± 0.019 for the second.

LASEPLPPYPPS and LASPPFPRPPPP are within error of each other in protein stability index: 0.704 ± 0.052 for the first, 0.57 ± 0.12 for the second.

LASSLTALRYPP and LASYSSCYIRDF are within error of each other in protein stability index: 0.742 ± 0.064 for the first, 0.751 ± 0.017 for the second.

LATPPPPPLSPP and LAVKGIVNDSTI are within error of each other in protein stability index: 0.789 ± 0.19 for the first, 0.683 ± 0.0084 for the second.

LCGVRGESGLEG and LCLFRSCVHSSA are within error of each other in protein stability index: 0.685 ± 0.031 for the first, 0.616 ± 0.049 for the second.

Going from LCLRRLSCVGFG to LCLWVWGSVVGG, the protein stability index rises from 0.568 ± 0.022 to 0.6123 ± 0.0015.

Compared with LCPNFFFFSSSP, LCPRIAIVHPPS is lower in protein stability index: 0.75 ± 0.017 for the first, 0.606 ± 0.027 for the second.

First: LCQCAFLSFSCF
Second: LCRPNELPDGLP
The protein stability index of the first is lower: 0.61642 ± 1.1e-05 for the first, 0.664 ± 0.039 for the second.

LCSLWWGLVSGW and LCSPCSSLFHSQ are within error of each other in protein stability index: 0.652 ± 0.029 for the first, 0.656 ± 0.032 for the second.

LCVGAGCAFEEG and LCVWFGGLGLVG are within error of each other in protein stability index: 0.675 ± 0.025 for the first, 0.69 ± 0.019 for the second.

LDAVRCRDKAVV and LDGAHLLLNTIP are within error of each other in protein stability index: 0.6537 ± 0.0036 for the first, 0.687 ± 0.039 for the second.

LDRTIPGPWPLR and LDVASTPPLSTL are within error of each other in protein stability index: 0.731 ± 0.042 for the first, 0.704 ± 0.023 for the second.

LDVCDGVSGVRS and LDYDTTNSMWLS are within error of each other in protein stability index: 0.647 ± 0.035 for the first, 0.586 ± 0.09 for the second.

First: LECLSRGWSIYC
Second: LEDGDRVYQVTI
The protein stability index of the first is lower: 0.541 ± 0.05 for the first, 0.655 ± 0.012 for the second.

LEEGLYQQEDIR and LEFEIYHSECTV are within error of each other in protein stability index: 0.722 ± 0.076 for the first, 0.685 ± 0.088 for the second.

LEFMTENSCACV gave a protein stability index of 0.652 ± 0.033.
